Laboratory results reported in publication PMC12126490, “The HP1 box of KAP1 organizes HP1α for silencing of endogenous retroviral elements in embryonic stem cells” (Nature Communications, 2025).

What was measured:
FL HP1α = experiment: mass photometry, mixture of FL HP1α and FL KAP1 (Fig. 6g)
Protocol: For MP assays shown in Fig. 6g–I and Supplementary Fig. 12, FL KAP1 and FL HP1α were expressed and purified as described[38],[67]. MP measurements were performed on a Refeyn OneMP instrument (Refeyn Ltd). The calibration was done with a native marker protein standard mix (NativeMark Unstained Protein Standard, Thermo Scientific), which contains proteins ranging from 20 to 1200 kDa. Coverslips (24 × 50 mm, No. 1.5H, Marienfeld) were cleaned by sequential sonication in Milli-Q water, isopropanol and Milli-Q-water, followed by drying with nitrogen. For each acquisition 2 μL of protein solution was applied to 18 μL of buffer (10 mM HEPES pH 7.5, 150 mM NaCl) in a gasket (CultureWellTM Reusable Gasket, Grace Bio-Labs) on a coverslip. To capture the movie, 400 nM HP1α was diluted 10× and 200 nM KAP1 was diluted 10× for a final concentration of 40 nM and 20 nM, respectively. The final molar ratios of HP1α:KAP1 were 1:0, 1:1 and 2:1. Movies were recorded at 999 Hz with an exposure time of 0.95 ms by using the AcquireMP software (Refeyn Ltd). All mass photometry movies were processed and analysed in the DiscoverMP software (Refeyn Ltd).

[1] = system: endogenous retroelements in KAP1 cKO ESCs; experiment: ATAC-seq chromatin accessibility; assay type: cell-based, mouse; settings: exogenous expression in KAP1 cKO ESCs, 2 μg/mL doxycycline, 2 μM 4-OHT 48 h
Protocol: ESCs were maintained under standard conditions on gelatin-coated plates at 37 °C at 5% CO2 in Knockout DMEM (Thermo Fisher) supplemented with NEAA, GlutaMAX, penicillin/streptomycin (Thermo Fisher), 15% ESC-screened fetal bovine serum (Hyclone), 0.1 mM 2-mercaptoethanol (Fisher), and leukemia-inhibitory factor (LIF). Generation of KAP1 cKO ESCs has been described previously. The piggybac transposon system was used to stably integrate transgenic Flag-tagged WT or V488E mutant KAP1 under control of an rtTA promoter (Systems Biosciences, PB-TRE-EGFP-EF1a-rtTA) into the inducible KAP1 cKO ESCs. Exogenous expression of WT or V488E mutant KAP1 was induced with 2 μg/mL doxycycline for 48 h and maintained in doxycycline prior to endogenous KAP1 deletion. KAP1 deletion was induced with 2 μM 4-OHT (Sigma) treatment for 48 h. […]
The modified ATAC-sequencing protocol Omni-ATAC was performed. […] Number of further PCR cycles required was determined using KAPA Library Quantification Kit (KK4854). […]
Quality of datasets was assessed using the FastQC tool. Raw reads were adapter and quality trimmed using Trimgalore. Trimmed reads were aligned to the mouse reference genome (mm10) with Bowtie2. Multimapping reads were randomly assigned. Optical duplicate reads were filtered using Picard (https://broadinstitute.github.io/picard/). Reads which mapped to the mitochondrial genome were removed with Samtools. […]

B1: FL KAP1: full-length KAP1 (KRAB-associated protein 1, TRIM28, TIF1β) (protein)
chain: MAASAAAASAAAASAASGSPGPGEGSAGGEKRSTAPSAAASASASAAASSPAGGGAEALELLEHCGVCRERLRPEREPRLLPCLHSACSACLGPAAPAAANSSGDGGAAGDGTVVDCPVCKQQCFSKDIVENYFMRDSGSKAATDAQDANQCCTSCEDNAPATSYCVECSEPLCETCVEAHQRVKYTKDHTVRSTGPAKSRDGERTVYCNVHKHEPLVLFCESCDTLTCRDCQLNAHKDHQYQFLEDAVRNQRKLLASLVKRLGDKHATLQKSTKEVRSSIRQVSDVQKRVQVDVKMAILQIMKELNKRGRVLVNDAQKVTEGQQERLERQHWTMTKIQKHQEHILRFASWALESDNNTALLLSKKLIYFQLHRALKMIVDPVEPHGEMKFQWDLNAWTKSAEAFGKIVAERPGTNSTGPAPMAPPRAPGPLSKQGSGSSQPMEVQEGYGFGSGDDPYSSAEPHVSGVKRSRSGEGEVSGLMRKVPRVSLERLDLDLTADSQPPVFKVFPGSTTEDYNLIVIERGAAAAATGQPGTAPAGTPGAPPLAGMAIVKEEETEAAIGAPPTATEGPETKPVLMALAEGPGAEGPRLASPSGSTSSGLEVVAPEGTSAPGGGPGTLDDSATICRVCQKPGDLVMCNQCEFCFHLDCHLPALQDVPGEEWSCSLCHVLPDLKEEDGSLSLDGADSTGVVAKLSPANQRKCERVLLALFCHEPCRPLHQLATDSTFSLDQPGGTLDLTLIRARLQEKLSPPYSSPQEFAQDVGRMFKQFNKLTEDKADVQSIIGLQRFFETRMNEAFGDTKFSAVLVEPPPMSLPGAGLSSQELSGGPGDGP
Question: How did the “effect on oligomerization of HP1α” value (FL HP1α) turn out when B1 was run?
Answer: The value was “Oligomerization of HP1α was further increased”.

Question: What about the “restoration of closed chromatin at IAPEz, MERVK10C and ETn” value [1] of the same molecule?
Answer: Its value is “able to partially restore closed chromatin at IAPEz, MERVK10C and ETn elements”.
